Experimental data: IntAct's records for PubMed 20584941

B1: Protein RESTRICTED TEV MOVEMENT 3 (Arabidopsis thaliana (Mouse-ear cress)), D5K228 (parent)
chain: MGKQFDKKITWTIKNFASLLSDLIYSDHFVVGGCKWHLRAYPKGYNNANSLSLFLGVAVPTSLPSGWRRHTKFRLTLVNQLSDKLSQSKLNELEQWFDEKTTNWGLSSMCPLNEIHAKDSGFLLNGELKIVVEIKVLETIGKLDVTEETSTITETVDVNGFQLLPSQAKSVSRMFAKHPELASDLRPKNPNLRTGYMSLLLSLIETLSQLPQQMSKDDLLDAYDALGSMRDAGFKLDWLEKKLYEVSEKKENEEASETGLQEMEEELKDMKQKCLEMEALVEKEKAKVSTAKAPISFDDIV
partner: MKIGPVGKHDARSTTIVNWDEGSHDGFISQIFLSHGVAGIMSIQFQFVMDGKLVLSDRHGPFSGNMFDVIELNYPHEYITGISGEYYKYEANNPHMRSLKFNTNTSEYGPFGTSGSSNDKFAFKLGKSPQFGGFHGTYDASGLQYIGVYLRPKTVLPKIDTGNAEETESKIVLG

Variants of: B1
Conditions: with jal1_arath RTM1, Q9SE37

| effect of a mutation on the interaction | Variant |
| --- | --- |
| decreasing interaction | MGKQFDKKITWTIKNFASLLSDLIYSDHFVVGGCKWHLRAYPKGYNNANSLSLFLGVAVPTSLPSGWRRHTKFRLTLVNQLSDKLSQSKLNELEQWFDEKTTNWGLSSMCPLNEIHAKDSGFLLNGELKIVVEIKVLETIGKLDVTEETSTITETVDVNGFQLLPSQAKSVSRMFAKHPELASDLRPKNPNLRTGYMSLLLSLIETLSQLPQQMSKDDLLDAYDALGSMRDAGFKLDWLEKKLYEVSEKKENEEASETGLQEMEEELKDMKQKCLEMEALVEKKKAKVSTAKAPISFDDIV [E284K] |
